According to US20080045697A1 (Genentech, published 2008):

Biological target: T1, complement C3b (UniProt P01024 23-667; P01024 751-1663)
T1 construct: range 1-645;range 729-1641; The residue numbers seem to count on C3 without its signal peptide
Assay: Fig. S13A-C and results not shown

T1 sequence (P01024 23-667 limits assumed, chain 1 of 2): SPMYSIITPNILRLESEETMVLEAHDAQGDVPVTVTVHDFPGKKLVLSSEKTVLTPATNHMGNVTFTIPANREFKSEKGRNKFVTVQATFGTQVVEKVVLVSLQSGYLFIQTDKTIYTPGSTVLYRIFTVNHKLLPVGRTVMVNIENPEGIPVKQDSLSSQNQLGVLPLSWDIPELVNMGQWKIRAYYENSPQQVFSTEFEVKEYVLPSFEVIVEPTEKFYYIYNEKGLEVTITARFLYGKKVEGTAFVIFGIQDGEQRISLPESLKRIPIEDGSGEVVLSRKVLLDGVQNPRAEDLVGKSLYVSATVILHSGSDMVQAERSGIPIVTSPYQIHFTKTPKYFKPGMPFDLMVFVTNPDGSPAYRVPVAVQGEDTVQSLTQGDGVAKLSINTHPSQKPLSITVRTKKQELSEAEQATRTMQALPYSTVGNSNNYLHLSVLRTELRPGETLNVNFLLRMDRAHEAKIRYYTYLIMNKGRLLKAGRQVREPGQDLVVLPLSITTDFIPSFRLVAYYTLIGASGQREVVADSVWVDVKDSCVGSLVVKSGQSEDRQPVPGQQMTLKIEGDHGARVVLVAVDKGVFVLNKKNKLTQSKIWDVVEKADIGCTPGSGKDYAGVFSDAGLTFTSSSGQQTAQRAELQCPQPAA
T1 sequence (P01024 751-1663 limits assumed, chain 2 of 2): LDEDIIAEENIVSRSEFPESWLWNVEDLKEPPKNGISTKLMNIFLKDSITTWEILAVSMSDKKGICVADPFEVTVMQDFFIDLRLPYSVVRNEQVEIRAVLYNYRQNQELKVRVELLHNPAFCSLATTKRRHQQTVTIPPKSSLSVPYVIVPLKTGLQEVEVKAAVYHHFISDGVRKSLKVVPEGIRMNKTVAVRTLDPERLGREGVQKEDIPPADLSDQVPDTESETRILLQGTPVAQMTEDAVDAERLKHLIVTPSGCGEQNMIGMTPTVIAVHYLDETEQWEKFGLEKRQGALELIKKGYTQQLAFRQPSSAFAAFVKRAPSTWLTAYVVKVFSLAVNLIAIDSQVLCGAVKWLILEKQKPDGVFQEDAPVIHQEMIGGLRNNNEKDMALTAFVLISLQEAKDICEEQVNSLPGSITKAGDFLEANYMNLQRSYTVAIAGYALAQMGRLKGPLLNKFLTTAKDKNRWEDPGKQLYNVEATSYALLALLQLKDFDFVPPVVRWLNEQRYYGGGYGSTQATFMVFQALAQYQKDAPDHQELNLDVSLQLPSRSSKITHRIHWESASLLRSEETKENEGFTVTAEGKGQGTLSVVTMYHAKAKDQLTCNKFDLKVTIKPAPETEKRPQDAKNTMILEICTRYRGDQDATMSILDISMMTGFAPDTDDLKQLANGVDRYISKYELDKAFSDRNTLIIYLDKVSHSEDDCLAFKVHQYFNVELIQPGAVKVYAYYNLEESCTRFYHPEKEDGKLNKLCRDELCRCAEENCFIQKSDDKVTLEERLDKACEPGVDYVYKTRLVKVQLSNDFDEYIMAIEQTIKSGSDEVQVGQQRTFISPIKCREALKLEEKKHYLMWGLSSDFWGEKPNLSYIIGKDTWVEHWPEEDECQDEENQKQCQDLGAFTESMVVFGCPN

B1: complement factor H (other, UniProt P08603 19-1231, looked up)
chain: EDCNELPPRRNTEILTGSWSDQTYPEGTQAIYKCRPGYRSLGNVIMVCRKGEWVALNPLRKCQKRPCGHPGDTPFGTFTLTGGNVFEYGVKAVYTCNEGYQLLGEINYRECDTDGWTNDIPICEVVKCLPVTAPENGKIVSSAMEPDREYHFGQAVRFVCNSGYKIEGDEEMHCSDDGFWSKEKPKCVEISCKSPDVINGSPISQKIIYKENERFQYKCNMGYEYSERGDAVCTESGWRPLPSCEEKSCDNPYIPNGDYSPLRIKHRTGDEITYQCRNGFYPATRGNTAKCTSTGWIPAPRCTLKPCDYPDIKHGGLYHENMRRPYFPVAVGKYYSYYCDEHFETPSGSYWDHIHCTQDGWSPAVPCLRKCYFPYLENGYNQNYGRKFVQGKSIDVACHPGYALPKAQTTVTCMENGWSPTPRCIRVKTCSKSSIDIENGFISESQYTYALKEKAKYQCKLGYVTADGETSGSITCGKDGWSAQPTCIKSCDIPVFMNARTKNDFTWFKLNDTLDYECHDGYESNTGSTTGSIVCGYNGWSDLPICYERECELPKIDVHLVPDRKKDQYKVGEVLKFSCKPGFTIVGPNSVQCYHFGLSPDLPICKEQVQSCGPPPELLNGNVKEKTKEEYGHSEVVEYYCNPRFLMKGPNKIQCVDGEWTTLPVCIVEESTCGDIPELEHGWAQLSSPPYYYGDSVEFNCSESFTMIGHRSITCIHGVWTQLPQCVAIDKLKKCKSSNLIILEEHLKNKKEFDHNSNIRYRCRGKEGWIHTVCINGRWDPEVNCSMAQIQLCPPPPQIPNSHNMTTTLNYRDGEKVSVLCQENYLIQEGEEITCKDGRWQSIPLCVEKIPCSQPPQIEHGTINSSRSSQESYAHGTKLSYTCEGGFRISEENETTCYMGKWSSPPQCEGLPCKSPPEISHGVVAHMSDSYQYGEEVTYKCFEGFGIDGPAIAKCLGEKWSHPPSCIKTDCLSLPSFENAIPMGEKKDVYKAGEQVTYTCATYYKMDGASNVTCINSRWTGRPTCRDTSCVNPPTVQNAYIVSRQMSKYPSGERVRYQCRSPYEMFGDEEVMCLNGNWTEPPQCKDSTGKCGPPPPIDNGDITSFPLSVYAPASSVEYQCQNLYQLEGNKRITCRNGQWSEPPKCLHPCVISREIMENYNIALRWTAKQKLYSRTGESVEFVCKRGYRLSSRSHTLRTTCWDGKLEYPTCAKR
notes: also called fH
**Q.** Does B1 bind?
**A.** Result: binds
